Measured values from patent US20190263934A1.

Key:
[1] = target: biotinylated hFcRn (human) (UniProt P55899); assay: SPR Biacore, pH 6.0
Target sequence in this assay (P55899 24-297 limits assumed, form in doubt, chain 1 of 2): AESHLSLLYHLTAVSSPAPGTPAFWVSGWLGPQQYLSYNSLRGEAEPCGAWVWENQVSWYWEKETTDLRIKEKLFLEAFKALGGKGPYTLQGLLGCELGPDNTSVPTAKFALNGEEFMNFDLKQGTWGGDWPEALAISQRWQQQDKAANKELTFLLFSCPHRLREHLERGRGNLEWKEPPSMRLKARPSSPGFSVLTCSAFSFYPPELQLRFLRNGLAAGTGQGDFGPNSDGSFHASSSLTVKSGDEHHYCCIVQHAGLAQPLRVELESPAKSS
Target sequence in this assay (P61769 21-119 limits assumed, form in doubt, chain 2 of 2, further chain): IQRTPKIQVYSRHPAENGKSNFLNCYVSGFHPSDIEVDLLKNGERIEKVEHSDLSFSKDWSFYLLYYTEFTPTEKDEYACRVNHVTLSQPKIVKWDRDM

[2] = target: rFcRn (rat) (UniProt P13599); assay: SPR Biacore, pH 6.0
Target sequence in this assay (P13599 23-298 limits assumed, form in doubt, chain 1 of 2): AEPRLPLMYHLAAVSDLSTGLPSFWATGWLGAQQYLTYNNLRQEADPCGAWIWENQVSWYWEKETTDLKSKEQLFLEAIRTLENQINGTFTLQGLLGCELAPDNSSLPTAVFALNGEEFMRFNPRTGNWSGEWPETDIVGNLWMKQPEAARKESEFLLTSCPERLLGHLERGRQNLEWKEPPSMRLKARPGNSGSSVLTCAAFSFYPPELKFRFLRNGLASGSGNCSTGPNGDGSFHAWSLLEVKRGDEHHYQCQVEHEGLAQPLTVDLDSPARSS
Target sequence in this assay (P07151 21-119 limits assumed, form in doubt, chain 2 of 2, further chain): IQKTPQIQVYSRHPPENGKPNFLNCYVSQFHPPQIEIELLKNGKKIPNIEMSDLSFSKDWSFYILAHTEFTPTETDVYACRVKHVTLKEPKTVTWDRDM

[3] = target: biotinylated hFcRn (human) (UniProt P55899); assay: SPR Biacore, pH 7.4
Target sequence in this assay (P55899 24-297 limits assumed, form in doubt, chain 1 of 2): as the sequence (P55899 24-297 limits assumed, form in doubt, chain 1 of 2) above
Target sequence in this assay (P61769 21-119 limits assumed, form in doubt, chain 2 of 2, further chain): as the sequence (P61769 21-119 limits assumed, form in doubt, chain 2 of 2, further chain) above

[4] = target: rFcRn (rat) (UniProt P13599); assay: SPR Biacore, pH 7.4
Target sequence in this assay (P13599 23-298 limits assumed, form in doubt, chain 1 of 2): as the sequence (P13599 23-298 limits assumed, form in doubt, chain 1 of 2) above
Target sequence in this assay (P07151 21-119 limits assumed, form in doubt, chain 2 of 2, further chain): as the sequence (P07151 21-119 limits assumed, form in doubt, chain 2 of 2, further chain) above

[5] = target: biotinylated hFcRn (human) (UniProt P55899); assay: SPR Biacore, pH 6.0; remark: listed apart in the source
Target sequence in this assay (P55899 24-297 limits assumed, form in doubt, chain 1 of 2): as the sequence (P55899 24-297 limits assumed, form in doubt, chain 1 of 2) above
Target sequence in this assay (P61769 21-119 limits assumed, form in doubt, chain 2 of 2, further chain): as the sequence (P61769 21-119 limits assumed, form in doubt, chain 2 of 2, further chain) above

[6] = target: biotinylated hFcRn (human) (UniProt P55899); assay: SPR Biacore, pH 7.4; remark: listed apart in the source
Target sequence in this assay (P55899 24-297 limits assumed, form in doubt, chain 1 of 2): as the sequence (P55899 24-297 limits assumed, form in doubt, chain 1 of 2) above
Target sequence in this assay (P61769 21-119 limits assumed, form in doubt, chain 2 of 2, further chain): as the sequence (P61769 21-119 limits assumed, form in doubt, chain 2 of 2, further chain) above

[7] = target: Human CD16a (FcγRIIIa) V158 with C-terminal HPC4 tag (human) (UniProt P08637); assay: SPR Biacore FcγRIIIa
[8] = target: rFcRn (rat) (UniProt P13599); assay: BLI Octet, pH 6.0, purified antibody
Target sequence in this assay (P13599 23-298 limits assumed, form in doubt, chain 1 of 2): as the sequence (P13599 23-298 limits assumed, form in doubt, chain 1 of 2) above
Target sequence in this assay (P07151 21-119 limits assumed, form in doubt, chain 2 of 2, further chain): as the sequence (P07151 21-119 limits assumed, form in doubt, chain 2 of 2, further chain) above

[9] = target: biotinylated hFcRn (human) (UniProt P55899); assay: SPR Biacore, pH 7.4, 1000 nM antibody
Target sequence in this assay (P55899 24-297 limits assumed, form in doubt, chain 1 of 2): as the sequence (P55899 24-297 limits assumed, form in doubt, chain 1 of 2) above
Target sequence in this assay (P61769 21-119 limits assumed, form in doubt, chain 2 of 2, further chain): as the sequence (P61769 21-119 limits assumed, form in doubt, chain 2 of 2, further chain) above

[10] = target: rFcRn (rat) (UniProt P13599); assay: SPR Biacore, pH 7.4, 1000 nM antibody
Target sequence in this assay (P13599 23-298 limits assumed, form in doubt, chain 1 of 2): as the sequence (P13599 23-298 limits assumed, form in doubt, chain 1 of 2) above
Target sequence in this assay (P07151 21-119 limits assumed, form in doubt, chain 2 of 2, further chain): as the sequence (P07151 21-119 limits assumed, form in doubt, chain 2 of 2, further chain) above

[11] = target: Human CD16a (FcγRIIIa) V158 with C-terminal HPC4 tag (human) (UniProt P08637); assay: SPR Biacore, captured FcγRIIIa-V158
[12] = target: rFcRn (rat) (UniProt P13599); assay: BLI Octet screen, pH 6.0
Target sequence in this assay (P13599 23-298 limits assumed, form in doubt, chain 1 of 2): as the sequence (P13599 23-298 limits assumed, form in doubt, chain 1 of 2) above
Target sequence in this assay (P07151 21-119 limits assumed, form in doubt, chain 2 of 2, further chain): as the sequence (P07151 21-119 limits assumed, form in doubt, chain 2 of 2, further chain) above

[13] = target: biotinylated hFcRn (human) (UniProt P55899); assay: Biacore SPR, pH 6.0, bivalent fit
Target sequence in this assay (P55899 24-297, form in doubt, chain 1 of 2): as the sequence (P55899 24-297 limits assumed, form in doubt, chain 1 of 2) above
Target sequence in this assay (P61769 21-119, form in doubt, chain 2 of 2, further chain): as the sequence (P61769 21-119 limits assumed, form in doubt, chain 2 of 2, further chain) above

[14] = target: rFcRn (rat) (UniProt P13599); assay: Biacore SPR, pH 6.0, bivalent fit
Target sequence in this assay (P13599 23-298, form in doubt, chain 1 of 2): as the sequence (P13599 23-298 limits assumed, form in doubt, chain 1 of 2) above
Target sequence in this assay (P07151 21-119, form in doubt, chain 2 of 2, further chain): as the sequence (P07151 21-119 limits assumed, form in doubt, chain 2 of 2, further chain) above

Chain of Human CD16a (FcγRIIIa) V158 with C-terminal HPC4 tag (human) (P08637 17-208 F176V): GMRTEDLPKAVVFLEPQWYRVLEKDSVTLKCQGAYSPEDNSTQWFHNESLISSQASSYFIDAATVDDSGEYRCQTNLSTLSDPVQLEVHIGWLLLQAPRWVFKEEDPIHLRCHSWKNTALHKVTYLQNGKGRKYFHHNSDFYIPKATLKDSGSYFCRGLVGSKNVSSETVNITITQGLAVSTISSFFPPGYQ

| Substance | koff [1] [s⁻¹] | Kd [2] [nM] | koff [2] [s⁻¹] | Steady State RU [3] [RU] | Steady State RU [4] [RU] | Kd [5] [nM] | Steady State RU [6] [RU] | koff [8] [s⁻¹] | Steady State RU [9] [RU] | Steady State RU [10] [RU] | kon [1] [M⁻¹ s⁻¹] | kon [2] [M⁻¹ s⁻¹] | koff [5] [s⁻¹] | kon [5] [M⁻¹ s⁻¹] | FcγRIIIa V158 Affinity Fold Change (relative to WT) [11] [fold] | Kd [1] [nM] | % enhanced binding vs WT [7] [%] | fold slower off-rate vs WT [12] [fold] | Kd [13] [nM] | koff [13] [s⁻¹] | other results |
| --- | --- | --- | --- | --- | --- | --- | --- | --- | --- | --- | --- | --- | --- | --- | --- | --- | --- | --- | --- | --- | --- |
| mAb1 M252Y/S254T/T256E (antibody) | 0.045 | 18 | 0.00121 | 13.2 | 53.9 | 342 | 13.1 | 0.00066 | 13.2 | 53.9 | – | – | – | – | – | – | – | – | – | – | % reduction in binding response vs wild-type [7]: 50% |
| mAb1 M428L/N434S (antibody) | 0.052 | 74 | 0.00658 | 18.3 | 24.8 | 272 | 18.5 | 0.00338 | 18.3 | 24.8 | 193000 | 90800 | 0.5 | 19000 | 1.04 | – | – | – | – | – | – |
| mAb1 N434F (antibody) | 0.05 | 26 | 0.00336 | 22.2 | 61.5 | – | – | 0.00118 | 20.1 | 54.9 | 354000 | 126000 | – | 350000 | 1.16 | 165 | 16 to 40 | > 2 | 165 | 0.05 | kon [13]: 350000 M⁻¹ s⁻¹; Kd [14]: 26 nM; koff [14]: 0.0034 s⁻¹; kon [14]: 126000 M⁻¹ s⁻¹ |
| mAb1 N434Y (antibody) | 0.052 | 23 | 0.00346 | 25.5 | 66 | – | – | 0.00133 | 22.6 | 47 | 359000 | 145000 | 0.05 | 360000 | 1.41 | 137 | 16 to 40 | > 2 | 137 | 0.05 | kon [13]: 360000 M⁻¹ s⁻¹; Kd [14]: 23 nM; koff [14]: 0.0035 s⁻¹; kon [14]: 145000 M⁻¹ s⁻¹ |
